Test results taken from article PMC7424515, “Molecular characterization of pyridoxine 5′-phosphate oxidase and its pathogenic forms associated with neonatal epileptic encephalopathy” (Scientific Reports, 2020).

Experiments:
[1] = target: human PNPO X262Q variant (human); assay: SEC; Superdex 200 10/300 GL; 20 mM potassium-phosphate buffer, pH 7.6, 150 mM NaCl, 5 mM 2-mercaptoethanol; oligomeric state from elution profile
[2] = target: the molecule itself; assay: as above

| stoichiometry N [1] | Molecule | stoichiometry N [2] |
| --- | --- | --- |
| 2 | human PNPO X262Q variant (enzyme) | – |
| – | human pyridoxine 5′-phosphate oxidase (PNPO), wild type (enzyme, also called wild type PNPO; pyridoxal 5′-phosphate synthase; source: E. coli, pET28-PNPO, purified (HisTrap metal-chelation chromatography)) MTCWLRGVTATFGRPAEWPGYLSHLCGRSAAMDLGPMRKSYRGDREAFEETHLTSLDPVKQFAAWFEEAVQCPDIGEANAMCLATCTRDGKPSARMLLLKGFGKDGFRFFTNFESRKGKELDSNPFASLVFYWEPLNRQVRVEGPVKKLPEEEAECYFHSRPKSSQIGAVVSHQSSVIPDREYLRKKNEELEQLYQDQEVPKPKSWGGYVLYPQVMEFWQGQTNRLHDRIVFRRGLPTGDSPLGPMTHRGEEDWLYERLAP | 2 |
| – | human PNPO R225H variant (enzyme, Pathogenic variant found in PNPOD patients; source: E. coli Rosetta(λDE3), purified (HisTrap metal-chelation chromatography)) MTCWLRGVTATFGRPAEWPGYLSHLCGRSAAMDLGPMRKSYRGDREAFEETHLTSLDPVKQFAAWFEEAVQCPDIGEANAMCLATCTRDGKPSARMLLLKGFGKDGFRFFTNFESRKGKELDSNPFASLVFYWEPLNRQVRVEGPVKKLPEEEAECYFHSRPKSSQIGAVVSHQSSVIPDREYLRKKNEELEQLYQDQEVPKPKSWGGYVLYPQVMEFWQGQTNHLHDRIVFRRGLPTGDSPLGPMTHRGEEDWLYERLAP | 2 |
| – | human PNPO R116Q/R225H double variant (enzyme, Combination of replacements found together in PNPOD patients; source: E. coli Rosetta(λDE3), purified (HisTrap metal-chelation chromatography)) MTCWLRGVTATFGRPAEWPGYLSHLCGRSAAMDLGPMRKSYRGDREAFEETHLTSLDPVKQFAAWFEEAVQCPDIGEANAMCLATCTRDGKPSARMLLLKGFGKDGFRFFTNFESQKGKELDSNPFASLVFYWEPLNRQVRVEGPVKKLPEEEAECYFHSRPKSSQIGAVVSHQSSVIPDREYLRKKNEELEQLYQDQEVPKPKSWGGYVLYPQVMEFWQGQTNHLHDRIVFRRGLPTGDSPLGPMTHRGEEDWLYERLAP | 2 |
| – | human PNPO R141C variant (enzyme, Pathogenic variant found in a PNPOD patient; source: E. coli Rosetta(λDE3), purified (HisTrap metal-chelation chromatography)) MTCWLRGVTATFGRPAEWPGYLSHLCGRSAAMDLGPMRKSYRGDREAFEETHLTSLDPVKQFAAWFEEAVQCPDIGEANAMCLATCTRDGKPSARMLLLKGFGKDGFRFFTNFESRKGKELDSNPFASLVFYWEPLNRQVCVEGPVKKLPEEEAECYFHSRPKSSQIGAVVSHQSSVIPDREYLRKKNEELEQLYQDQEVPKPKSWGGYVLYPQVMEFWQGQTNRLHDRIVFRRGLPTGDSPLGPMTHRGEEDWLYERLAP | 2 |
| – | human PNPO G118R variant (enzyme, Pathogenic variant found in PNPOD patients; source: E. coli Rosetta(λDE3), purified (HisTrap metal-chelation chromatography)) MTCWLRGVTATFGRPAEWPGYLSHLCGRSAAMDLGPMRKSYRGDREAFEETHLTSLDPVKQFAAWFEEAVQCPDIGEANAMCLATCTRDGKPSARMLLLKGFGKDGFRFFTNFESRKRKELDSNPFASLVFYWEPLNRQVRVEGPVKKLPEEEAECYFHSRPKSSQIGAVVSHQSSVIPDREYLRKKNEELEQLYQDQEVPKPKSWGGYVLYPQVMEFWQGQTNRLHDRIVFRRGLPTGDSPLGPMTHRGEEDWLYERLAP | 2 |
